# Measured values: patent publication US20170189519A1 (Janssen / Centocor, published 2017)
# B1: CR6261 (antibody, V domains shown)
# VH: EVQLVESGAEVKKPGSSVKVSCKASGGPFRSYAISWVRQAPGQGPEWMGGIIPIFGTTKYAPKFQGRVTITADDFAGTVYMELSSLRSEDTAMYYCAKHMGYQVRETMDVWGKGTTVTVSS
# VL: QSVLTQPPSVSAAPGQKVTISCSGSSSNIGNDYVSWYQQLPGTAPKLLIYDNNKRPSGIPDRFSGSKSGTSATLGITGLQTGDEANYYCATWDRRPTAYVVFGGGTKLTVLG
# B2: CR6261 (antibody, V domains shown)
# VH: B1 VH
# VL: B1 VL
# Legend:
# 262B9 [1] = biological target: T1, 262B9 (influenza A H1N1 A/Brisbane/59/2007); experiment: ELISA signal over HTRF expression signal
# 189E10 [2] = biological target: T2, 189E10 (influenza A H1N1 A/Brisbane/59/2007); experiment: ELISA signal over HTRF expression signal
# 146G7 [3] = biological target: T3, 146G7 (influenza A H1N1 A/Brisbane/59/2007); experiment: ELISA signal over HTRF expression signal
# 262B9 [4] = biological target: T1, 262B9; experiment: ratio against parental SEQ ID NO: 6
# 189E10 [5] = biological target: T2, 189E10; experiment: ratio against parental SEQ ID NO: 6
# 146G7 [6] = biological target: T3, 146G7; experiment: ratio against parental SEQ ID NO: 6
# 262B9 [7] = biological target: T1, 262B9; experiment: ELISA, coated CR6261, P. pastoris medium
# 189E10 [8] = biological target: T2, 189E10; experiment: ELISA, coated CR6261, P. pastoris medium
# 146G7 [9] = biological target: T3, 146G7; experiment: ELISA, coated CR6261, P. pastoris medium
# s127H1-t2-cl18long = s127H1-t2-cl18long (influenza A virus H1N1 …, UniProt A8C8J4 18-529)
Binder,ratio of CR6261 binding signal to HTRF signal (262B9 [1]),ratio of CR6261 binding signal to HTRF signal (189E10 [2]),ratio of CR6261 binding signal to HTRF signal (146G7 [3]),fold increase of ratio over parental H1 mini-HA (262B9 [4]),fold increase of ratio over parental H1 mini-HA (189E10 [5]),fold increase of ratio over parental H1 mini-HA (146G7 [6]),CR6261 binding signal (262B9 [7]),CR6261 binding signal (189E10 [8]),CR6261 binding signal (146G7 [9]),EC50 (s127H1-t2-cl18long)
B1,9.89,10.3,10.2,1.66,1.74,1.71,94700,189000,534000,–
B2,–,–,–,–,–,–,–,–,–,0.139 µg/mL
